Assay [1] addresses Coatomer complex of HEK293T cells (Homo sapiens (Human)) (UniProt P53621).
The target is the same in assay [2]. This is another data set of the same source.

B1: Wnt7a-HA (ligand)
chain: LGASIICNKIPGLAPRQRAICQSRPDAIIVIGEGSQMGLDECQFQFRNGRWNCSALGERTVFGKELKVGSREAAFTYAIIAAGVAHAITAACTQGNLSDCGCDKEKQGQYHRDEGWKWGGCSADIRYGIGFAKVFVDAREIKQNARTLMNLHNNEAGRKILEENMKLECKCHGVSGSCTTKTCWTTLPQFRELGYVLKDKYNEAVHVEPVRASRNKRPTFLKIKKPLSYRKPMDTDLVYIEKSPNYCEEDPVTGSVGTQGRACNKTAPQASGCDLMCCGRGYNTHQYARVWQCNCKFHWCCYVKCNTCSERTEMYTCKYPYDVPDYA
For the molecule B1, the Selection pattern Distribution (%), EV Fraction in assay [1] was 83.4%. The Wnt7a expression per ug of total protein, EV Fraction (tangential flow filtration) (per ug of total protein) in assay [2] is 0.13.

Values taken from patent publication US20240238441A1.
